In paper PMC3709894, “Characterization of the Interaction between the Cohesin Subunits Rad21 and SA1/2” (PLoS ONE, 2013):

Target: T1, 6xHis-tagged SA2 (1–1051 aa), baculovirus-expressed (human, UniProt Q8N3U4 1-1051)
T1 construct: source: Sf21 insect cells, baculovirus, in cell extract; not shown: 6xHis, N-terminal, kept
T1 sequence (looked up): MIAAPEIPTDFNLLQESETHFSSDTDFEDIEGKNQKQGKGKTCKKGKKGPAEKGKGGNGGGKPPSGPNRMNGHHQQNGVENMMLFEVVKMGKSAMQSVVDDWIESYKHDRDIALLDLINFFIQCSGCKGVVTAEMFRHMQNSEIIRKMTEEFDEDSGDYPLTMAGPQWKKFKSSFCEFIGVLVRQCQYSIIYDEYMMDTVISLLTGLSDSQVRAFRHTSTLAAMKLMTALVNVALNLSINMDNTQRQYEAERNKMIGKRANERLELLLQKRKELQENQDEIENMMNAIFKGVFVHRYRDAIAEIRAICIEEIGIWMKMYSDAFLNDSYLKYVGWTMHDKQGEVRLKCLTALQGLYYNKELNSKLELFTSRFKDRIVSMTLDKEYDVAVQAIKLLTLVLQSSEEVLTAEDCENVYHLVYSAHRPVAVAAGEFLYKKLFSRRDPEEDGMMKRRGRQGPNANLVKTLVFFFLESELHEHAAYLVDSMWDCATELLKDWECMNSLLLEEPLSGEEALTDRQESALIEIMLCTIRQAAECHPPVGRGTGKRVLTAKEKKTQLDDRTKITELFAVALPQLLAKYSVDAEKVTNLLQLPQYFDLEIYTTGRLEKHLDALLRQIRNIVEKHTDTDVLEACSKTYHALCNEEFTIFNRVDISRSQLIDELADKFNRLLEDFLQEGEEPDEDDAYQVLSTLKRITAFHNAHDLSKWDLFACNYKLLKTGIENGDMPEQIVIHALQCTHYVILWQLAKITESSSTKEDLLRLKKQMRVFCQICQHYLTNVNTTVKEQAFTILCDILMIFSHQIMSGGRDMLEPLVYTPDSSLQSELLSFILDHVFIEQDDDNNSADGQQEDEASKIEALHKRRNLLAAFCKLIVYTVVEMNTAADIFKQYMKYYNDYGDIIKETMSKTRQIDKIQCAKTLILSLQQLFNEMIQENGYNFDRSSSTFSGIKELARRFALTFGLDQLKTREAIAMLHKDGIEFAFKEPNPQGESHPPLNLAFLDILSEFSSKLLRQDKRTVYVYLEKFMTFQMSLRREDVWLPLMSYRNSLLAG
Assay: SEC; complex co-expressed in Sf21 cells and purified by Ni-NTA and anion exchange, then Superose 6 gel filtration; 25 mM Tris-HCl pH 7.5, 200 mM NaCl, 5% glycerol
Details: both partners purified

B1: Flag-tagged Rad21 (171–450 aa), baculovirus-expressed (domain or fragment, human, UniProt O60216 171-450, looked up)
chain: MREGSAFEDDDMLVSTTTSNLLLESEQSTSNLNEKINHLEYEDQYKDDNFGEGNDGGILDDKLISNNDGGIFDDPPALSEAGVMLPEQPAHDDMDEDDNVSMGGPDSPDSVDPVEPMPTMTDQTTLVPNEEEAFALEPIDITVKETKAKRKRKLIVDSVKELDSKTIRAQLSDYSDIVTTLDLAPPTKKLMMWKETGGVEKLFSLPAQPLWNNRLLKLFTRCLTPLVPEDLRKRRKGGEADNLDEFLKEFENPEVPREDQQQQHQQRDVIDEPIIEEPSR
notes: also called Rad21 middle region; source: Sf21 insect cells, baculovirus, in cell extract
B1: binds.
